# Reference: patent publication US20260201008A1, “SECRETIN-DERIVED GLP1R SELECTIVE AGONISTS” (GUBRA A/S, priority 2023, published 2026)
# Numbered stars: 1 amine (or outer) side, 2 acyl side, 3 side chain; on linkers, the order of the positions; unused ones are H or OH. Square brackets hold non-standard residues; d marks the D form. Side chains are listed from the residue outwards. Ends that are not written are not given here. * marks the point of attachment. C20 diacid = O=C(O)CCCCCCCCCCCCCCCCCCC(=O)*; γGlu = O=C(O)[C@H](CCC(=O)[*:2])N[*:1]; AEEA = NCCOCCOCC(=O)O; Aib = CC(C)(N)C(=O)O
# B1: SEQ ID NO: 98 (peptide)
# peptide: H[Aib]EGTFTSDVSELKEEAAAQRFLEHLV-NH2
# modifications: not fully specified (residue 14)
# B2: SEQ ID NO: 10 (peptide)
# peptide: H[Aib]EGTFTSDVSRLK([AEEA-AEEA-γGlu-C20 diacid])ELAA[Aib]QRFLEHLV-NH2
# modifications: also: K14 lipid also given as C18DA[γE][OEG][OEG]-
# B3: SEQ ID NO: 105 (peptide)
# peptide: H[Aib]EGTFTSD[Aib]SGLLEGAALQRFIQWLV-NH2
# modifications: N-terminus assumed
# SMILES: CC[C@H](C)[C@H](NC(=O)[C@H](Cc1ccccc1)NC(=O)[C@H](CCCNC(=N)N)NC(=O)[C@H](CCC(N)=O)NC(=O)[C@H](CC(C)C)NC(=O)[C@H](C)NC(=O)[C@H](C)NC(=O)CNC(=O)[C@H](CCC(=O)O)NC(=O)[C@H](CC(C)C)NC(=O)[C@H](CC(C)C)NC(=O)CNC(=O)[C@H](CO)NC(=O)C(C)(C)NC(=O)[C@H](CC(=O)O)NC(=O)[C@H](CO)NC(=O)[C@@H](NC(=O)[C@H](Cc1ccccc1)NC(=O)[C@@H](NC(=O)CNC(=O)[C@H](CCC(=O)O)NC(=O)C(C)(C)NC(=O)[C@@H](N)Cc1c[nH]cn1)[C@@H](C)O)[C@@H](C)O)C(=O)N[C@@H](CCC(N)=O)C(=O)N[C@@H](Cc1c[nH]c2ccccc12)C(=O)N[C@@H](CC(C)C)C(=O)N[C@H](C(N)=O)C(C)C
# B4: SEQ ID NO: 107 (peptide)
# peptide: H[Aib]EGTFTSD[Aib]S[Aib]LLEGAALQRFIQWLV-NH2
# modifications: N-terminus assumed
# SMILES: CC[C@H](C)[C@H](NC(=O)[C@H](Cc1ccccc1)NC(=O)[C@H](CCCNC(=N)N)NC(=O)[C@H](CCC(N)=O)NC(=O)[C@H](CC(C)C)NC(=O)[C@H](C)NC(=O)[C@H](C)NC(=O)CNC(=O)[C@H](CCC(=O)O)NC(=O)[C@H](CC(C)C)NC(=O)[C@H](CC(C)C)NC(=O)C(C)(C)NC(=O)[C@H](CO)NC(=O)C(C)(C)NC(=O)[C@H](CC(=O)O)NC(=O)[C@H](CO)NC(=O)[C@@H](NC(=O)[C@H](Cc1ccccc1)NC(=O)[C@@H](NC(=O)CNC(=O)[C@H](CCC(=O)O)NC(=O)C(C)(C)NC(=O)[C@@H](N)Cc1c[nH]cn1)[C@@H](C)O)[C@@H](C)O)C(=O)N[C@@H](CCC(N)=O)C(=O)N[C@@H](Cc1c[nH]c2ccccc12)C(=O)N[C@@H](CC(C)C)C(=O)N[C@H](C(N)=O)C(C)C
# B5: SEQ ID NO: 100 (peptide)
# peptide: H[Aib]EGTFTSDVSTLK([AEEA-AEEA-γGlu-C20 diacid])EFAAQQRFLEHLV-NH2
# modifications: also: K14 lipid also given as C18DA[γE][OEG][OEG]-
# B6: SEQ ID NO: 110 (peptide)
# peptide: H[Aib]EGTFTSD[Aib]SVLLEGAALQRFIQWLV-NH2
# modifications: N-terminus assumed
# SMILES: CC[C@H](C)[C@H](NC(=O)[C@H](Cc1ccccc1)NC(=O)[C@H](CCCNC(=N)N)NC(=O)[C@H](CCC(N)=O)NC(=O)[C@H](CC(C)C)NC(=O)[C@H](C)NC(=O)[C@H](C)NC(=O)CNC(=O)[C@H](CCC(=O)O)NC(=O)[C@H](CC(C)C)NC(=O)[C@H](CC(C)C)NC(=O)[C@@H](NC(=O)[C@H](CO)NC(=O)C(C)(C)NC(=O)[C@H](CC(=O)O)NC(=O)[C@H](CO)NC(=O)[C@@H](NC(=O)[C@H](Cc1ccccc1)NC(=O)[C@@H](NC(=O)CNC(=O)[C@H](CCC(=O)O)NC(=O)C(C)(C)NC(=O)[C@@H](N)Cc1c[nH]cn1)[C@@H](C)O)[C@@H](C)O)C(C)C)C(=O)N[C@@H](CCC(N)=O)C(=O)N[C@@H](Cc1c[nH]c2ccccc12)C(=O)N[C@@H](CC(C)C)C(=O)N[C@H](C(N)=O)C(C)C
# B7: SEQ ID NO: 97 (peptide)
# peptide: H[Aib]EGTFTSDVSELKEEAA[Aib]QRFLEHLV-NH2
# modifications: not fully specified (residue 14)
# B8: SEQ ID NO: 99 (peptide)
# peptide: H[Aib]EGTFTSDVSELKELAAQQRFLEHLV-NH2
# modifications: not fully specified (residue 14)
# B9: SEQ ID NO: 108 (peptide)
# peptide: H[Aib]EGTFTSD[Aib]SWLLEGAALQRFIQWLV-NH2
# modifications: N-terminus assumed
# SMILES: CC[C@H](C)[C@H](NC(=O)[C@H](Cc1ccccc1)NC(=O)[C@H](CCCNC(=N)N)NC(=O)[C@H](CCC(N)=O)NC(=O)[C@H](CC(C)C)NC(=O)[C@H](C)NC(=O)[C@H](C)NC(=O)CNC(=O)[C@H](CCC(=O)O)NC(=O)[C@H](CC(C)C)NC(=O)[C@H](CC(C)C)NC(=O)[C@H](Cc1c[nH]c2ccccc12)NC(=O)[C@H](CO)NC(=O)C(C)(C)NC(=O)[C@H](CC(=O)O)NC(=O)[C@H](CO)NC(=O)[C@@H](NC(=O)[C@H](Cc1ccccc1)NC(=O)[C@@H](NC(=O)CNC(=O)[C@H](CCC(=O)O)NC(=O)C(C)(C)NC(=O)[C@@H](N)Cc1c[nH]cn1)[C@@H](C)O)[C@@H](C)O)C(=O)N[C@@H](CCC(N)=O)C(=O)N[C@@H](Cc1c[nH]c2ccccc12)C(=O)N[C@@H](CC(C)C)C(=O)N[C@H](C(N)=O)C(C)C
# B10: SEQ ID NO: 101 (peptide)
# peptide: H[Aib]EGTFTSDVSVLK([AEEA-AEEA-γGlu-C20 diacid])ETAA[Aib]QRFLEHLV-NH2
# modifications: also: K14 lipid also given as C18DA[γE][OEG][OEG]-
# B11: SEQ ID NO: 96 (peptide)
# peptide: H[Aib]EGTFTSDVSTLKEEAAAQRFLEHLV-NH2
# modifications: not fully specified (residue 14)
# B12: SEQ ID NO: 104 (peptide)
# peptide: H[Aib]EGTFTSD[Aib]SRLLEGAALQRFIQWLV-NH2
# modifications: N-terminus assumed
# SMILES: CC[C@H](C)[C@H](NC(=O)[C@H](Cc1ccccc1)NC(=O)[C@H](CCCNC(=N)N)NC(=O)[C@H](CCC(N)=O)NC(=O)[C@H](CC(C)C)NC(=O)[C@H](C)NC(=O)[C@H](C)NC(=O)CNC(=O)[C@H](CCC(=O)O)NC(=O)[C@H](CC(C)C)NC(=O)[C@H](CC(C)C)NC(=O)[C@H](CCCNC(=N)N)NC(=O)[C@H](CO)NC(=O)C(C)(C)NC(=O)[C@H](CC(=O)O)NC(=O)[C@H](CO)NC(=O)[C@@H](NC(=O)[C@H](Cc1ccccc1)NC(=O)[C@@H](NC(=O)CNC(=O)[C@H](CCC(=O)O)NC(=O)C(C)(C)NC(=O)[C@@H](N)Cc1c[nH]cn1)[C@@H](C)O)[C@@H](C)O)C(=O)N[C@@H](CCC(N)=O)C(=O)N[C@@H](Cc1c[nH]c2ccccc12)C(=O)N[C@@H](CC(C)C)C(=O)N[C@H](C(N)=O)C(C)C
# B13: SEQ ID NO: 102 (peptide)
# peptide: H[Aib]EGTFTSDVSTLK([AEEA-AEEA-γGlu-C20 diacid])EEAATQRFLEHLV-NH2
# modifications: also: K14 lipid also given as C18DA[γE][OEG][OEG]-
# B14: SEQ ID NO: 106 (peptide)
# peptide: H[Aib]EGTFTSD[Aib]SYLLEGAALQRFIQWLV-NH2
# modifications: N-terminus assumed
# SMILES: CC[C@H](C)[C@H](NC(=O)[C@H](Cc1ccccc1)NC(=O)[C@H](CCCNC(=N)N)NC(=O)[C@H](CCC(N)=O)NC(=O)[C@H](CC(C)C)NC(=O)[C@H](C)NC(=O)[C@H](C)NC(=O)CNC(=O)[C@H](CCC(=O)O)NC(=O)[C@H](CC(C)C)NC(=O)[C@H](CC(C)C)NC(=O)[C@H](Cc1ccc(O)cc1)NC(=O)[C@H](CO)NC(=O)C(C)(C)NC(=O)[C@H](CC(=O)O)NC(=O)[C@H](CO)NC(=O)[C@@H](NC(=O)[C@H](Cc1ccccc1)NC(=O)[C@@H](NC(=O)CNC(=O)[C@H](CCC(=O)O)NC(=O)C(C)(C)NC(=O)[C@@H](N)Cc1c[nH]cn1)[C@@H](C)O)[C@@H](C)O)C(=O)N[C@@H](CCC(N)=O)C(=O)N[C@@H](Cc1c[nH]c2ccccc12)C(=O)N[C@@H](CC(C)C)C(=O)N[C@H](C(N)=O)C(C)C
# B15: SEQ ID NO: 11 (peptide)
# peptide: H[Aib]EGTFTSDVSTLK([AEEA-AEEA-γGlu-C20 diacid])ELAAAQRFLEHLV-NH2
# modifications: also: K14 lipidated with C20DA[γE][OEG][OEG]- or C18DA[γE][OEG][OEG]-
# B16: SEQ ID NO: 103 (peptide)
# peptide: H[Aib]EGTFTSD[Aib]SYLK([AEEA-AEEA-γGlu-C20 diacid])EEA[Aib]LQRFLEHLV-NH2
# modifications: also: K14 lipid also given as C18DA[γE][OEG][OEG]-
# B17: SEQ ID NO: 109 (peptide)
# peptide: H[Aib]EGTFTSD[Aib]SELLEGAALQRFIQWLV-NH2
# modifications: N-terminus assumed
# SMILES: CC[C@H](C)[C@H](NC(=O)[C@H](Cc1ccccc1)NC(=O)[C@H](CCCNC(=N)N)NC(=O)[C@H](CCC(N)=O)NC(=O)[C@H](CC(C)C)NC(=O)[C@H](C)NC(=O)[C@H](C)NC(=O)CNC(=O)[C@H](CCC(=O)O)NC(=O)[C@H](CC(C)C)NC(=O)[C@H](CC(C)C)NC(=O)[C@H](CCC(=O)O)NC(=O)[C@H](CO)NC(=O)C(C)(C)NC(=O)[C@H](CC(=O)O)NC(=O)[C@H](CO)NC(=O)[C@@H](NC(=O)[C@H](Cc1ccccc1)NC(=O)[C@@H](NC(=O)CNC(=O)[C@H](CCC(=O)O)NC(=O)C(C)(C)NC(=O)[C@@H](N)Cc1c[nH]cn1)[C@@H](C)O)[C@@H](C)O)C(=O)N[C@@H](CCC(N)=O)C(=O)N[C@@H](Cc1c[nH]c2ccccc12)C(=O)N[C@@H](CC(C)C)C(=O)N[C@H](C(N)=O)C(C)C
# Experiments:
# [1] = target: human GLP-1 receptor (hGLP1R) (human, UniProt P43220 24-463); test: cell-based or functional assay
# [2] = target: human secretin receptor (hSCTR) (human, UniProt P47872 23-440); test: cell-based or functional assay
# Sequence of human secretin receptor (hSCTR) (P47872 23-440): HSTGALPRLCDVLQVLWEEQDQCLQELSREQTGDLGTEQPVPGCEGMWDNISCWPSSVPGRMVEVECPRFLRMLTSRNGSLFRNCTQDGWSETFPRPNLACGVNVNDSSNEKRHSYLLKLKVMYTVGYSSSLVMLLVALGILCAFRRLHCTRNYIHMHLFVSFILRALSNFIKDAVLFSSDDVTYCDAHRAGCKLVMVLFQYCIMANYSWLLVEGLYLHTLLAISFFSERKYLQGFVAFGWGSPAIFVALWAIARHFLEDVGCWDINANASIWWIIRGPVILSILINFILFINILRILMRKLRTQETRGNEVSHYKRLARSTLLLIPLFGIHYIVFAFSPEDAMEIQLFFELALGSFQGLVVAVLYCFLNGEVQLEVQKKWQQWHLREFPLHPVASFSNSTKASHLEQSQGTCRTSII
Binder,pEC50 hGLPR1 [1],pEC50 hSCTR [2]
B1,10.6 -log M,5.9 -log M
B2,9.7 -log M,6.3 -log M
B3,10 -log M,5.8 -log M
B4,9.8 -log M,6 -log M
B5,9.9 -log M,6.1 -log M
B6,9.7 -log M,5.7 -log M
B7,11 -log M,5.8 -log M
B8,10.8 -log M,6.1 -log M
B9,10.1 -log M,5.9 -log M
B10,9.7 -log M,6 -log M
B11,10.9 -log M,6.4 -log M
B12,9.9 -log M,6.5 -log M
B13,11 -log M,7.1 -log M
B14,10.8 -log M,5.8 -log M
B15,10.3 -log M,6.2 -log M
B16,11.1 -log M,5 -log M
B17,10.1 -log M,5.5 -log M
